To fix the notation:
B1: Mineralocorticoid receptor, residues 600 to 675; numbered along this chain, P08235 (parent)
chain: SKICLVCGDEASGCHYGVVTCGSCKVFFKRAVEGQHNYLCAGRNDCIIDKIRRKNCPACRLQKCLQAGMNLGARKS

± gives the uncertainty stated by the source.

Variants of B1 are the subject of this series. Briefly: abundance fitness (aPCA) (normalised: wild type 0, dead -1); higher = more abundant; growth selection in yeast, the domain comes from the species named. Conditions: Homo sapiens.
For SKICLVCGDEASGCHYGVVTCGSCKVFFKRAVEGQHNYLCAGRNDCIIDKIRRKNCPACRLQKCFQAGMNLGARKS, the abundance fitness was -0.01 ± 0.1.

SKICLVCGDEASGCHYGVVTCGSCKVFFKRAVEGQHNYLCAGRNDCIIDKIRRKNCPACRLQKCKQAGMNLGARKS: the abundance fitness is -0.107 ± 0.061.

Consider SKICLVCGDEASGCHYGVVTCGSCKVFFKRAVEGQHNYLCAGRNDCIIDKIRRKNCPACRLQKCLQCGMNLGARKS, for which the abundance fitness was -0.03 ± 0.095. For SKICLVCGDEASGCHYGVVTCGSCKVFFKRAVEGQHNYLCAGRNDCIIDKIRRKNCQACRLQKCLQAGMNLGARKS, the abundance fitness was -0.09 ± 0.059.

For the variant SKICLVCGDEASGCHYGVVTCGSCKVFFKRAVEGQHNYLCAGRNDCIIDKIRRKNCVACRLQKCLQAGMNLGARKS, the abundance fitness was -0.135 ± 0.046. The figure for SKICLVCGDEASGCHYGVVTCGSCKVFFKRAVEGQHNYLCAGRNDCIIDKIRRKNCDACRLQKCLQAGMNLGARKS is 0.061 ± 0.051. For the variant SKICLVCGDEASGCHYGVVTCGSCKVFFKRAVEGQHNYLCAGRNDCIIDKIRRKRCPACRLQKCLQAGMNLGARKS, the abundance fitness is -0.015 ± 0.039. Consider SKICLVCGDEASGCHYGVVTCGSCKVFFKRAVEGQHHYLCAGRNDCIIDKIRRKNCPACRLQKCLQAGMNLGARKS, for which the abundance fitness is -0.051 ± 0.051. SKICLVCGDEASGCHYGVVTCGSCKVFFKRAVEGQHNYLCAGRNDSIIDKIRRKNCPACRLQKCLQAGMNLGARKS: the abundance fitness is -0.946 ± 0.097. For the variant SKICLVCGDEASGCHYGVVTCGSCKVFFKRAVEGQHNYLCAGRNDCIIDKIRRKNCPACRLQKCLQAGMNLSARKS, the abundance fitness was -0.009 ± 0.04. For SKICLVCGDEASGCHYPVVTCGSCKVFFKRAVEGQHNYLCAGRNDCIIDKIRRKNCPACRLQKCLQAGMNLGARKS, the abundance fitness was -0.175 ± 0.083. With SKICLVCGDEASGCHYGVVTCGSCKLFFKRAVEGQHNYLCAGRNDCIIDKIRRKNCPACRLQKCLQAGMNLGARKS, the abundance fitness is -0.049 ± 0.041. In the case of SKICLVCGDEASGLHYGVVTCGSCKVFFKRAVEGQHNYLCAGRNDCIIDKIRRKNCPACRLQKCLQAGMNLGARKS, the abundance fitness was -0.103 ± 0.048. As for SKICLVCGDEASGDHYGVVTCGSCKVFFKRAVEGQHNYLCAGRNDCIIDKIRRKNCPACRLQKCLQAGMNLGARKS, the abundance fitness was -0.011 ± 0.093. The figure for SKICLVCGDEASGCHYGVVTAGSCKVFFKRAVEGQHNYLCAGRNDCIIDKIRRKNCPACRLQKCLQAGMNLGARKS is -0.977 ± 0.16; for SKICLVCGDEASGCHYGVVTCGSCKVFFKRAVEGQHNYLCAGRNDCICDKIRRKNCPACRLQKCLQAGMNLGARKS it is -0.226 ± 0.052; for SKICLVCGDEASGCHYGVVTCGSCKVFFKRAVEGQHNYLCAGRNDCIRDKIRRKNCPACRLQKCLQAGMNLGARKS it is -0.147 ± 0.036.

As for VKICLVCGDEASGCHYGVVTCGSCKVFFKRAVEGQHNYLCAGRNDCIIDKIRRKNCPACRLQKCLQAGMNLGARKS, the abundance fitness was 0.018 ± 0.056. Turning to SKICLVCGDEASFCHYGVVTCGSCKVFFKRAVEGQHNYLCAGRNDCIIDKIRRKNCPACRLQKCLQAGMNLGARKS, the abundance fitness is -0.047 ± 0.085. SKICLVCGDEADGCHYGVVTCGSCKVFFKRAVEGQHNYLCAGRNDCIIDKIRRKNCPACRLQKCLQAGMNLGARKS: the abundance fitness was -0.238 ± 0.17. For SKICLVCGDEASGCHYGVVTCGSCKVFFKRAVEGQHNYLCAGRNDCIIDKISRKNCPACRLQKCLQAGMNLGARKS the value was -0.04 ± 0.043; for SKICDVCGDEASGCHYGVVTCGSCKVFFKRAVEGQHNYLCAGRNDCIIDKIRRKNCPACRLQKCLQAGMNLGARKS, -0.168 ± 0.082. As for SKIQLVCGDEASGCHYGVVTCGSCKVFFKRAVEGQHNYLCAGRNDCIIDKIRRKNCPACRLQKCLQAGMNLGARKS, the abundance fitness is -0.812 ± 0.19.

For the variant SKIKLVCGDEASGCHYGVVTCGSCKVFFKRAVEGQHNYLCAGRNDCIIDKIRRKNCPACRLQKCLQAGMNLGARKS, the abundance fitness is -0.87 ± 0.23. For SKICLVCGDEASGCHYGLVTCGSCKVFFKRAVEGQHNYLCAGRNDCIIDKIRRKNCPACRLQKCLQAGMNLGARKS, the abundance fitness is -0.06 ± 0.044.

For the variant SKICLVCGDEASGCHYGVVTCGSCKVFFKRAVEGQHNYLCAGRNDCEIDKIRRKNCPACRLQKCLQAGMNLGARKS, the abundance fitness was -0.023 ± 0.14. On to SKICLRCGDEASGCHYGVVTCGSCKVFFKRAVEGQHNYLCAGRNDCIIDKIRRKNCPACRLQKCLQAGMNLGARKS, for which the abundance fitness is -0.971 ± 0.16. Take SKICLVCGDEASGCHYGVVTCGSCKVFFKRAVEGQHNYLCFGRNDCIIDKIRRKNCPACRLQKCLQAGMNLGARKS: the abundance fitness was -0.277 ± 0.07. In the case of SKICLVCGDEASGCHYGVVTCGSCKVFFKRAVEGMHNYLCAGRNDCIIDKIRRKNCPACRLQKCLQAGMNLGARKS, the abundance fitness is -0.121 ± 0.056.

SKICLVCGDEASGCHYGVVTCGSCKVFFKRAVEGQHNYLCAGRNDCIIDKIRRKNCPACRLQKCLQAMMNLGARKS: the abundance fitness is -0.211 ± 0.084. SKICLVCGDEASGCHYGVVTCGSCKVFFKRAVEGQHNYLCAGRNDCIIDKIRRKNCPACRLQKCLQAGMNLGAMKS: the abundance fitness is -0.015 ± 0.055. In the case of SKICLVCGDEASGCHYGVVTCGSCKVFFKRAVEGQHNYLCAGRNDCIIDKFRRKNCPACRLQKCLQAGMNLGARKS, the abundance fitness is -0.076 ± 0.077. With SKICLVCGDEASGCHYGVVTCGSCKVFFNRAVEGQHNYLCAGRNDCIIDKIRRKNCPACRLQKCLQAGMNLGARKS, the abundance fitness was -0.109 ± 0.092. Turning to SKICLVCGDEASGCHYGVVTCGPCKVFFKRAVEGQHNYLCAGRNDCIIDKIRRKNCPACRLQKCLQAGMNLGARKS, the abundance fitness is 0.026 ± 0.067. SKICLVCGDEASGCHYGVVTCGSCKVFFKRAVEGQHNYLCAGRNDCIIDKIRRKNCPACRLQKCLQAGRNLGARKS: the abundance fitness was -0.421 ± 0.04. Consider SKICLVCGDEASGCHYGVVTCGSCKVFFKRAVEGQHNYLCAGRNDCIIDKIRRKNCPACRLQKCLQAGYNLGARKS, for which the abundance fitness was -0.493 ± 0.23.
